From patent publication US20170058297A1

How the values were obtained:
[1] = biological target: wild-type Cre recombinase (P1 Bacteriophage) (UniProt P06956); assay: cell-based or functional assay
Cre-E123LE-R337E = biological target: T1, Cre-E123LE-R337E
T1 chain: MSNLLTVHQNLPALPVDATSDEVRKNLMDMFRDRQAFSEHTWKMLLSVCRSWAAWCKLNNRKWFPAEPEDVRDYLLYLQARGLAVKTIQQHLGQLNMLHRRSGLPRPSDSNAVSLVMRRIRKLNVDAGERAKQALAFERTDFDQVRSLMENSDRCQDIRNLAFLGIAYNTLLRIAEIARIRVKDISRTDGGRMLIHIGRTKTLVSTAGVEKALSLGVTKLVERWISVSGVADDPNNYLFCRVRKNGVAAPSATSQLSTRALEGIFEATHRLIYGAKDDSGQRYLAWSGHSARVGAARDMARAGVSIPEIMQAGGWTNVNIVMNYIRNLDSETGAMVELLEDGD

[2] = biological target: Cre-B1 (P1 Bacteriophage) (UniProt P06956); assay: cell-based or functional assay
[3] = biological target: Cre-B2 (P1 Bacteriophage) (UniProt P06956); assay: cell-based or functional assay
[4] = biological target: Cre-A2 (P1 Bacteriophage) (UniProt P06956); assay: cell-based or functional assay
Cre-B2 = biological target: T2, Cre-B2
T2 chain: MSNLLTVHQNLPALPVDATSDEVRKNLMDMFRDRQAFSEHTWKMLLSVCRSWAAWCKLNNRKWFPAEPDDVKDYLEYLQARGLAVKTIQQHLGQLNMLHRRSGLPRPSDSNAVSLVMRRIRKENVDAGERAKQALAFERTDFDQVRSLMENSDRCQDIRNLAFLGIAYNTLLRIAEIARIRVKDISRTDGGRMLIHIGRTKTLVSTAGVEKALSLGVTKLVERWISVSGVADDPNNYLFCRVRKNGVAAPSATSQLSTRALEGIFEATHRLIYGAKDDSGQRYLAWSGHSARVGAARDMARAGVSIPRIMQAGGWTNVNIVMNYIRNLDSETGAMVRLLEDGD

For “wild-type Cre recombinase (from UniProt P06956 1-343) (enzyme)”, the RFP positive cells of 7000 sorted, Ai14 mouse ES reporter cells, promoter hbb + cmv, replicate 1 [1] was 3910 cells, the RFP positive cells of 7000 sorted, Ai14 mouse ES reporter cells, promoter hbb + cmv, replicate 2 [1] was 4220 cells and the RFP positive cells of 7000 sorted, Ai14 mouse ES reporter cells, promoter hbb + cmv, replicate 3 [1] was 4310 cells. It also gave an RFP positive cells of 7000 sorted, Ai14 mouse ES reporter cells, promoter hbb + sp1, replicate 1 [1] of 3820 cells, an RFP positive cells of 7000 sorted, Ai14 mouse ES reporter cells, promoter hbb + sp1, replicate 2 [1] of 3800 cells and an RFP positive cells of 7000 sorted, Ai14 mouse ES reporter cells, promoter hbb + sp1, replicate 3 [1] of 4020 cells. For the same molecule, the RFP positive cells of 7000 sorted, Ai14 mouse ES reporter cells, promoter hbb, replicate 1 [1] was 372 cells, the RFP positive cells of 7000 sorted, Ai14 mouse ES reporter cells, promoter hbb, replicate 2 [1] was 391 cells and the RFP positive cells of 7000 sorted, Ai14 mouse ES reporter cells, promoter hbb, replicate 3 [1] was 408 cells.

B1: Cre mutant with only the round 2 mutation E308R (protein)
chain: MSNLLTVHQNLPALPVDATSDEVRKNLMDMFRDRQAFSEHTWKMLLSVCRSWAAWCKLNNRKWFPAEPEDVRDYLLYLQARGLAVKTIQQHLGQLNMLHRRSGLPRPSDSNAVSLVMRRIRKENVDAGERAKQALAFERTDFDQVRSLMENSDRCQDIRNLAFLGIAYNTLLRIAEIARIRVKDISRTDGGRMLIHIGRTKTLVSTAGVEKALSLGVTKLVERWISVSGVADDPNNYLFCRVRKNGVAAPSATSQLSTRALEGIFEATHRLIYGAKDDSGQRYLAWSGHSARVGAARDMARAGVSIPRIMQAGGWTNVNIVMNYIRNLDSETGAMVRLLEDGD
With B1 the “recombinase activity in vitro” value was “The salt-bridge swap from round 2 alone yields two Cre mutants with reduced but clear activity (data not shown)”.

B2: Cre-E123L-E308R (protein)
chain: MSNLLTVHQNLPALPVDATSDEVRKNLMDMFRDRQAFSEHTWKMLLSVCRSWAAWCKLNNRKWFPAEPEDVRDYLLYLQARGLAVKTIQQHLGQLNMLHRRSGLPRPSDSNAVSLVMRRIRKLNVDAGERAKQALAFERTDFDQVRSLMENSDRCQDIRNLAFLGIAYNTLLRIAEIARIRVKDISRTDGGRMLIHIGRTKTLVSTAGVEKALSLGVTKLVERWISVSGVADDPNNYLFCRVRKNGVAAPSATSQLSTRALEGIFEATHRLIYGAKDDSGQRYLAWSGHSARVGAARDMARAGVSIPRIMQAGGWTNVNIVMNYIRNLDSETGAMVRLLEDGD
For B2, the “recombinase activity in vitro (loxP excision, gel)” value (Cre-E123LE-R337E) was “In vitro assays indicated that these mutants do not form an obligate heterotetrameric pair”.

B3: Cre-B1 (protein)
chain: MSNLLTVHQNLPALPVDATSDEVRKNLMDMFRDRQAFSEHTWKMLLSVCRSWAAWCKLNNRKWFPAEPDDVKDYLEYLQARGLAVKTIQQHLGQLNMLHRRSGLPRPSDSNAVSLVMRRIRKENVDAGERAKQALAFERTDFDQVRSLMENSDRCQDIRNLAFLGIAYNTLLRIAEIARIRVKDISRTDGGRMLIHIGRTKTLVSTAGVEKALSLGVTKLVERWISVSGVADDPNNYLFCRVRKNGVAAPSATSQLSTRALEGIFEATHRLIYGAKDDSGQRYLAWSGHSARVGAARDMARAGVSIPEIMQAGGWTNVNIVMNYIRNLDSETGAMVRLLEDGD
Work on B3 yielded an RFP positive cells of 7000 sorted, Ai14 mouse ES reporter cells, promoter hbb + cmv, replicate 1 [2] of 1240 cells, an RFP positive cells of 7000 sorted, Ai14 mouse ES reporter cells, promoter hbb + cmv, replicate 2 [2] of 1260 cells and an RFP positive cells of 7000 sorted, Ai14 mouse ES reporter cells, promoter hbb + cmv, replicate 3 [2] of 1120 cells. It also gave an RFP positive cells of 7000 sorted, Ai14 mouse ES reporter cells, promoter hbb + sp1, replicate 1 [2] of 1150 cells, an RFP positive cells of 7000 sorted, Ai14 mouse ES reporter cells, promoter hbb + sp1, replicate 2 [2] of 1080 cells and an RFP positive cells of 7000 sorted, Ai14 mouse ES reporter cells, promoter hbb + sp1, replicate 3 [2] of 1200 cells. For the same molecule, the RFP positive cells of 7000 sorted, Ai14 mouse ES reporter cells, promoter hbb, replicate 1 [2] was 97 cells, the RFP positive cells of 7000 sorted, Ai14 mouse ES reporter cells, promoter hbb, replicate 2 [2] was 102 cells and the RFP positive cells of 7000 sorted, Ai14 mouse ES reporter cells, promoter hbb, replicate 3 [2] was 85 cells. The “recombinase activity in vitro (loxP excision, gel)” value was “All Cre-B mutants are inactive in isolation”.

B4: Cre-A2 (protein)
chain: MSNLLTVHQNLPALPVDATSDEVRRNLMRMFELRRAFSEHTWKMLLSVCRSWAAWCKLNNRKWFPAEPEDVRDYLLYLQARGLAVKTIQQHLGQLNMLHRRSGLPRPSDSNAVSLVMRRIRKENVDAGERAKQALAFERTDFDQVRSLMENSDRCQDIRNLAFLGIAYNTLLRIAEIARIRVKDISRTDGGRMLIHIGRTKTLVSTAGVEKALSLGVTKLVERWISVSGVADDPNNYLFCRVRKNGVAAPSATSQLSTRALEGIFEATHRLIYGAKDDSGQRYLAWSGHSARVGAARDMARAGVSIPEIMQAGGWTNVNIVMNYIRNLDSETGAMVELLEDGD
B4 gave an RFP positive cells of 7000 sorted, Ai14 mouse ES reporter cells, promoter hbb + cmv, replicate 1 [3] of 3180 cells, an RFP positive cells of 7000 sorted, Ai14 mouse ES reporter cells, promoter hbb + cmv, replicate 2 [3] of 3410 cells and an RFP positive cells of 7000 sorted, Ai14 mouse ES reporter cells, promoter hbb + cmv, replicate 3 [3] of 3700 cells. For the same molecule, the RFP positive cells of 7000 sorted, Ai14 mouse ES reporter cells, promoter hbb + sp1, replicate 1 [3] was 3220 cells, the RFP positive cells of 7000 sorted, Ai14 mouse ES reporter cells, promoter hbb + sp1, replicate 2 [3] was 3340 cells and the RFP positive cells of 7000 sorted, Ai14 mouse ES reporter cells, promoter hbb + sp1, replicate 3 [3] was 3590 cells. It also gave an RFP positive cells of 7000 sorted, Ai14 mouse ES reporter cells, promoter hbb, replicate 1 [3] of 573 cells, an RFP positive cells of 7000 sorted, Ai14 mouse ES reporter cells, promoter hbb, replicate 2 [3] of 528 cells and an RFP positive cells of 7000 sorted, Ai14 mouse ES reporter cells, promoter hbb, replicate 3 [3] of 607 cells. For the same molecule, the RFP positive cells of 7000 sorted, Ai14 mouse ES reporter cells, promoter hbb + cmv, replicate 1 [4] was 1130 cells, the RFP positive cells of 7000 sorted, Ai14 mouse ES reporter cells, promoter hbb + cmv, replicate 2 [4] was 1120 cells and the RFP positive cells of 7000 sorted, Ai14 mouse ES reporter cells, promoter hbb + cmv, replicate 3 [4] was 1050 cells. The RFP positive cells of 7000 sorted, Ai14 mouse ES reporter cells, promoter hbb + sp1, replicate 1 [4] was 1050 cells, the RFP positive cells of 7000 sorted, Ai14 mouse ES reporter cells, promoter hbb + sp1, replicate 2 [4] was 1000 cells and the RFP positive cells of 7000 sorted, Ai14 mouse ES reporter cells, promoter hbb + sp1, replicate 3 [4] was 1120 cells. It also gave an RFP positive cells of 7000 sorted, Ai14 mouse ES reporter cells, promoter hbb, replicate 1 [4] of 47 cells, an RFP positive cells of 7000 sorted, Ai14 mouse ES reporter cells, promoter hbb, replicate 2 [4] of 52 cells and an RFP positive cells of 7000 sorted, Ai14 mouse ES reporter cells, promoter hbb, replicate 3 [4] of 41 cells. The “recombinase activity in vitro (loxP excision, gel)” value was “while its activity is reduced relative to Cre-A1, the Cre-A2 monomer was still capable of forming a functional homotetrameric complex” and the “recombinase activity in vitro (loxP excision, gel)” value (Cre-B2) was “the Cre-A2+Cre-B2 combination exhibited strong recombinase activity”.

B5: Cre-B2 (protein)
chain: MSNLLTVHQNLPALPVDATSDEVRKNLMDMFRDRQAFSEHTWKMLLSVCRSWAAWCKLNNRKWFPAEPDDVKDYLEYLQARGLAVKTIQQHLGQLNMLHRRSGLPRPSDSNAVSLVMRRIRKENVDAGERAKQALAFERTDFDQVRSLMENSDRCQDIRNLAFLGIAYNTLLRIAEIARIRVKDISRTDGGRMLIHIGRTKTLVSTAGVEKALSLGVTKLVERWISVSGVADDPNNYLFCRVRKNGVAAPSATSQLSTRALEGIFEATHRLIYGAKDDSGQRYLAWSGHSARVGAARDMARAGVSIPRIMQAGGWTNVNIVMNYIRNLDSETGAMVRLLEDGD
For B5, the RFP positive cells of 7000 sorted, Ai14 mouse ES reporter cells, promoter hbb + cmv, replicate 1 [3] was 2 cells, the RFP positive cells of 7000 sorted, Ai14 mouse ES reporter cells, promoter hbb + cmv, replicate 2 [3] was 2 cells and the RFP positive cells of 7000 sorted, Ai14 mouse ES reporter cells, promoter hbb + cmv, replicate 3 [3] was 4 cells. The RFP positive cells of 7000 sorted, Ai14 mouse ES reporter cells, promoter hbb + sp1, replicate 1 [3] was 2 cells, the RFP positive cells of 7000 sorted, Ai14 mouse ES reporter cells, promoter hbb + sp1, replicate 2 [3] was 1 cells and the RFP positive cells of 7000 sorted, Ai14 mouse ES reporter cells, promoter hbb + sp1, replicate 3 [3] was 3 cells. The RFP positive cells of 7000 sorted, Ai14 mouse ES reporter cells, promoter hbb, replicate 1 [3] was 0 cells, the RFP positive cells of 7000 sorted, Ai14 mouse ES reporter cells, promoter hbb, replicate 2 [3] was 0 cells and the RFP positive cells of 7000 sorted, Ai14 mouse ES reporter cells, promoter hbb, replicate 3 [3] was 1 cells. For the same molecule, the “recombinase activity in vitro (loxP excision, gel)” value was “All Cre-B mutants are inactive in isolation”.

B6: Cre mutant with only the round 2 mutation R337E (protein)
chain: MSNLLTVHQNLPALPVDATSDEVRKNLMDMFRDRQAFSEHTWKMLLSVCRSWAAWCKLNNRKWFPAEPEDVRDYLLYLQARGLAVKTIQQHLGQLNMLHRRSGLPRPSDSNAVSLVMRRIRKENVDAGERAKQALAFERTDFDQVRSLMENSDRCQDIRNLAFLGIAYNTLLRIAEIARIRVKDISRTDGGRMLIHIGRTKTLVSTAGVEKALSLGVTKLVERWISVSGVADDPNNYLFCRVRKNGVAAPSATSQLSTRALEGIFEATHRLIYGAKDDSGQRYLAWSGHSARVGAARDMARAGVSIPEIMQAGGWTNVNIVMNYIRNLDSETGAMVELLEDGD
In the case of B6, the “recombinase activity in vitro” value is reported as “The salt-bridge swap from round 2 alone yields two Cre mutants with reduced but clear activity (data not shown)”.
